The values below come from patent US20220235344A1, “TRYPSIN VARIANTS WITH IMPROVED ENZYMATIC PROPERTIES” (BIOPHARMA TRANSLATIONSINSTITUT DESSAU FORSCHUNGS GMBH, priority 2018, published 2022).

The test system of test [1] is anti-Her2-Fab-LC_RRKHAK(CF)/HC_YRAH (YRAH at heavy chain). Put plainly: Orthogonal dual-modification of Her2-specific Fab-fragment, second step (heavy chain, DM1). It counts as biochemical. From the text:
FIG. 6: Dual modification of a Fab-fragment by utilizing variation in substrate specificity of two Trypsiligase II variants. The HER2-specific Fab-fragment of Trastuzumab (anti-Her2-Fab-LC_RRKH/HC_YRAH, Heavy chain (SEQ ID NO: 2) and anti-Her2-Fab-LC_RRKH/HC_YRAH, Light chain (SEQ ID NO: 3)) was used and the respective recognition sequences genetically introduced. A) Trypsiligase II variant K7F11_H39Y/H59Y/K189D which recognizes the sequence RRKH was used in the first step for attachment of a carboxyfluorescein(CF)-bearing nucleophile. B) In the second step Trypsiligase II variant A2C8 which recognizes the sequence YRAH was used for modification with a nucleophile covalently bound to mertansine (DM1). Analysis by LC-MS. The amount of modified and unmodified Fab-fragment species for the first and second modification step are shown in MS spectrum A and B, respectively. […]
The second modification reaction of the heavy chain was performed in a solution containing 50 μM of the single modified aHer2-Fab-LC_RRKHAK(CF)/HC_YRAH, 1000 μM H-RKKAK(MCC-DM1)-OH, 5 μM A2C8, 100 mM HEPES/NaOH pH 7.8, 100 mM NaCl. […] The proportions of modified and unmodified Fab-fragment species for the first and second modification step were analyzed by LC-MS (see example 1). […] No modification upon the recognition sequence at the heavy chain had been monitored.

The target of test [2] is T1, Bz-PGGYRAHAG-OH (acyl donor) / H-RAHAK(DNP)-OH (acyl acceptor) (Rattus norvegicus, UniProt P00763, D194K/K66E/Y45H/Y65H).
T1 construct: made in house; host or cells: Pichia pastoris X-33
T1 sequence (P00763 24-246 Y45H/Y65H/K66E/D194K): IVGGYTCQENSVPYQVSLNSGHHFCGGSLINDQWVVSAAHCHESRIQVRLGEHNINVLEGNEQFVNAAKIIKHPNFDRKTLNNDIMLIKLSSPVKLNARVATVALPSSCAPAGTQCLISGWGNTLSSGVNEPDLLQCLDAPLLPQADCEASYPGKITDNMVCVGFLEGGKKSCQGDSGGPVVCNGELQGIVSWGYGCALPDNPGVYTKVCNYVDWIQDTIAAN
Put plainly: Maximum product yield of transamidation (Table 7). The class given is biochemical. The conditions noted are these: Zinc ions (100 μM): yes; two equivalents of acyl acceptor and 250 μM acyl donor. The method, then:
Model transamidation reactions were performed in a solution containing 15 to 250 μM acyl donor, 2 eq. of the corresponding acyl acceptor, varying concentrations of trypsin variant, 100 mM HEPES/NaOH pH 7.8, ±0.1 mM ZnC12, 100 mM NaCl, 10 mM CaCl2) at 30° C. Acyl donor and acyl acceptor had the same amino acids in P1′-P3′ position, e.g. Bz-[…]+H-RAHAK-OH or Bz-[…]+H-RKKAK-OH. Variations are indicated. The acyl acceptor could be equipped with a 2,4-Dinitrophenyl group (DNP) at the side chain of the terminal lysine, e.g. H-RAHAK(DNP)-OH or H-RKKAK(DNP)-OH. The reactions were started by the addition of enzyme. To record the time course of product formation and/or for kinetic evaluation of the reaction several aliquots of the reaction mixture were quenched with 25% (v/v) acetic acid at distinct time points within up to 4 hours. The composition of the reaction mixture was analyzed by UPCL with method I or II, depending on the absence (method 1) or presence (method II) of a 2,4-dinitrophenyl group within the acyl acceptor (see example 1). Measurements were performed as duplicates and errors were less than 5%.

B1: A2C8: Trypsiligase II + H40F, A55A, R96E, K97D, L99F, N143E, E151Y, S190V, Q192A, S214G, G219Q, A221T (protein)
chain: IVGGYTCQENSVPYQVSLNSGHFFCGGSLINDQWVVSAAHCHESRIQVRLGEHNINVLEGNEQFVNAAKIIKHPNFDEDTFNNDIMLIKLSSPVKLNARVATVALPSSCAPAGTQCLISGWGETLSSGVNYPDLLQCLDAPLLPQADCEASYPGKITDNMVCVGFLEGGKKVCAGDSGGPVVCNGELQGIVGWGYQCTLPDNPGVYTKVCNYVDWIQDTIAAN
As for B1, the “yield of dual labeled Fab-fragment” value in test [1] (estimated by mass spectrometry) is reported as “approximately 75%”. For the same molecule, the “site of modification, second step” value in test [1] (mass spectrometry) was “exclusively modification at the C-terminal end of the heavy chain”.

B2: Trypsiligase II (trypsin variant Y39H/Y59H/K60E/D189K) (protein)
chain: T1 sequence (P00763 24-246 Y45H/Y65H/K66E/D194K)
Regarding B2, the “product yield (%)” value in test [2] was determined as 18.1%.
